Conditions in all cases: DHQ 0.08 to 1.0 mmol/L; assay buffer, pH and temperature not given
The subject of data set [1] is O=C1C[C@@](O)(C(=O)O)C[C@@H](O)[C@@H]1O. Description: purified protein.
Substrate in data set [2]: O=C1C[C@@](O)(C(=O)O)C[C@@H](O)[C@@H]1O
Description: OD234 microplate assay, Lineweaver-Burk. It is filed as biochemical, Metallosphaera cuprina. From the text:
OD234 microplate assay, Lineweaver-Burk on DHQase 3030

Substrate in data set [3]: O=C1C[C@@](O)(C(=O)O)C[C@@H](O)[C@@H]1O
Description: OD234 microplate assay, Lineweaver-Burk. It is filed as biochemical, Ruminococcus champanellensis. The source says: OD234 microplate assay, Lineweaver-Burk on DHQase 3027

Substrate in data set [4]: O=C1C[C@@](O)(C(=O)O)C[C@@H](O)[C@@H]1O
Description: OD234 microplate assay, Lineweaver-Burk. It is filed as biochemical, Nocardia brasiliensis. From the text: OD234 microplate assay, Lineweaver-Burk on DHQase 3014

Substrate in data set [5]: O=C1C[C@@](O)(C(=O)O)C[C@@H](O)[C@@H]1O
Description: OD234 microplate assay, Lineweaver-Burk. It is filed as biochemical, Acetivibrio clariflavus. The source says: OD234 microplate assay, Lineweaver-Burk on DHQase 3025

Substrate in data set [6]: O=C1C[C@@](O)(C(=O)O)C[C@@H](O)[C@@H]1O
Description: OD234 microplate assay, Lineweaver-Burk. Format: biochemical, Alcanivorax borkumensis. From the text:
OD234 microplate assay, Lineweaver-Burk on DHQase 3003

Substrate in data set [7]: O=C1C[C@@](O)(C(=O)O)C[C@@H](O)[C@@H]1O
Description: OD234 microplate assay, Lineweaver-Burk. Format: biochemical, Natranaerobius thermophilus. From the text: OD234 microplate assay, Lineweaver-Burk on DHQase 3026

Substrate in data set [8]: O=C1C[C@@](O)(C(=O)O)C[C@@H](O)[C@@H]1O
Description: OD234 microplate assay, Lineweaver-Burk. It is filed as biochemical, Parageobacillus thermoglucosidasius. The source says:
OD234 microplate assay, Lineweaver-Burk on DHQase 3021

Substrate in data set [9]: O=C1C[C@@](O)(C(=O)O)C[C@@H](O)[C@@H]1O
Description: OD234 microplate assay, Lineweaver-Burk. It is filed as biochemical, Streptomyces acidiscabies. From the text:
OD234 microplate assay, Lineweaver-Burk on DHQase 3016

Substrate in data set [10]: O=C1C[C@@](O)(C(=O)O)C[C@@H](O)[C@@H]1O
Description: OD234 microplate assay, Lineweaver-Burk. It is filed as biochemical, Crystallibacter crystallopoietes. The source says: OD234 microplate assay, Lineweaver-Burk on DHQase 3012

Substrate in data set [11]: O=C1C[C@@](O)(C(=O)O)C[C@@H](O)[C@@H]1O
Description: OD234 microplate assay, Lineweaver-Burk. It is filed as biochemical, Paramagnetospirillum magneticum. The source says: OD234 microplate assay, Lineweaver-Burk on DHQase 3037

Substrate in data set [12]: O=C1C[C@@](O)(C(=O)O)C[C@@H](O)[C@@H]1O
Description: OD234 microplate assay, Lineweaver-Burk. It is filed as biochemical, Gluconobacter oxydans. The source says:
OD234 microplate assay, Lineweaver-Burk on DHQase 3007

Substrate in data set [13]: O=C1C[C@@](O)(C(=O)O)C[C@@H](O)[C@@H]1O
Description: OD234 microplate assay, Lineweaver-Burk. It is filed as biochemical, Psychromonas ingrahamii. The source says: OD234 microplate assay, Lineweaver-Burk on DHQase 3010

Substrate in data set [14]: O=C1C[C@@](O)(C(=O)O)C[C@@H](O)[C@@H]1O
Description: OD234 microplate assay, Lineweaver-Burk. It is filed as biochemical, Thermodesulfobium narugense. The source says: OD234 microplate assay, Lineweaver-Burk on DHQase 3028

Substrate in data set [15]: O=C1C[C@@](O)(C(=O)O)C[C@@H](O)[C@@H]1O
Description: OD234 microplate assay, Lineweaver-Burk. It is filed as biochemical, Halanaerobium hydrogeniformans. The source says: OD234 microplate assay, Lineweaver-Burk on DHQase 3024

Consider 15 molecules from PMC4314829, “Unraveling the kinetic diversity of microbial 3-dehydroquinate dehydratases of shikimate pathway” (AMB Express, 2015).

Turning to DHQase 3009 (Psychrobacter sp. PRwf-1), in data set [1], the Km (usually the concentration of substrate that gives half-maximal velocity) came to 203.24 µM; the Vmax (usually the top rate of the reaction or transport when substrate is in excess) came to 254 µM/min; the kcat (commonly the number of substrate molecules converted per active site and unit of time at saturation) was determined as 31.7 s⁻¹; the kcat/Km (as a rule, the turnover number divided by the Michaelis constant) turned out to be 160000 M⁻¹ s⁻¹.

B1: DHQase 3030 (Metallosphaera cuprina Ar-4) (protein)
chain: MFSLMKPEIVVSLPVTRPDDLNKVNKIDGLVELRLDYSTELPNPEELIPFKHKVLVTLRDKEEGGRIKYDVDFKAKYLERLNELGILYDVEASFLERRKIEYVGKIVSAHYFSSLPSTEEIDQLFRKYEGAYTIKVAVASLPGYRELLSYVSGKPNATFMPMSNDPIERLAFSLLGSKLLYTYLESPTAQGQLSYTQAKQILECIFK
notes: full length, codon-optimised synthetic gene, pET28a His tag, E. coli BL21(DE3), Ni-NTA
Turning to B1, in data set [2], the Michaelis constant (Km) is 92.76 µM, the maximal velocity (Vmax) came to 68.4 µM/min, the kcat worked out at 3.86 s⁻¹ and the kcat/Km worked out at 40000 M⁻¹ s⁻¹.

B2: DHQase 3027 (Ruminococcus champanellensis 18P13 = JCM 17042) (protein)
chain: MRILVIHGPNLNLLGEREPGIYGKNDLAHVNGAILTRAKELGVECEVFQSNHEGEILVRLHEARHAFDGVVLNAGAYTHYSYAIRDAIAAIRIPCVEVHISNVHAREEFRHTSVIAPACLGVVCGFGGDSYLLALEGLVRHCAGQKTL
notes: as for B1
Consider B2, for which, in data set [3], the Km worked out at 255.54 µM, the Vmax was found to be 360 µM/min, the kcat turned out to be 50.2 s⁻¹ and the kcat/Km turned out to be 200000 M⁻¹ s⁻¹.

B3: DHQase 3014 (Nocardia brasiliensis ATCC 700358) (protein)
chain: MSAPGPILVLNGPNLNMLGTRQPEVYGSATLDDVVELCRQTAERYGREIAAFQSNSEGALIDRIHRARGVESAIVINPGGLTHTSVALRDALVIPEVPIVEVHISNVHAREEFRHHSYISPIATAVVAGMGIQGYAAAIEFLVRSA
notes: as for B1
For B3, in [4], the Km was 151.51 µM, the Vmax stood at 216 µM/min, the kcat is 3.83 s⁻¹ and the kcat/Km is 30000 M⁻¹ s⁻¹.

B4: DHQase 3025 (Acetivibrio clariflavus DSM 19732) (protein)
chain: MKKILIINGPNLNLLGTREKEVYGTETLDDIAKKVAEEAAKLNVNIEFFQSNHEGDIIDKIHAARGNTDAIIINPGAYTHYSIAIRDAIKAVEIPTIEIHLSNIHAREEFRSHSVIAPVCVGQICGFGSNSYILGLNAAALL
notes: as for B1
On to B4, for which, in [5], the Michaelis constant (Km) turned out to be 368.46 µM, the maximum rate (Vmax) stood at 353 µM/min, the kcat amounted to 59.6 s⁻¹ and the kcat/Km was 160000 M⁻¹ s⁻¹.

B5: DHQase 3003 (Alcanivorax borkumensis SK2) (protein)
chain: MITANNDKFARGPILASILVLHGPNLNLLGTREPDKYGHTTLADINQQLQEQASKAGHHLQHLQSNAEYELVECIHDAHTEGVDFIIINPAAFTHTSVALRDALLAVNIPFIEVHLSNVHARETFRHHSFFSDIAKGVICGLGAIGYALALTAALEQLDD
notes: as for B1
Take B5: in data set [6], the Km was determined as 210.71 µM, the Vmax came out at 80.4 µM/min, the kcat stood at 13.5 s⁻¹ and the catalytic efficiency (kcat/Km) was found to be 60000 M⁻¹ s⁻¹.

B6: DHQase 3026 (Natranaerobius thermophilus JW/NM-WN-LF) (protein)
chain: MKIYVIHGPNINMLGNRESEHYGTQTLEELNSSIIKESESLGIEVEIFQFNSEGDIITKLQEANNYAQGVIINPGAYTHYSIAIRDAIAAISKPVIEVHISNIFNRESFRSHSVIAPVAKGQISGMGFAGYLLALNAFIKTKEG
notes: as for B1
With B6, in [7], the Km stood at 304.54 µM, the Vmax amounted to 177 µM/min, the kcat came out at 3.8 s⁻¹ and the kcat/Km turned out to be 10000 M⁻¹ s⁻¹.

B7: DHQase 3021 (Parageobacillus thermoglucosidasius) (protein)
chain: MAHLLLINGPNLNLLGKREPHIYGSTTLDSLEQELISFANEHGAALTCFQSNHEGAIIDRIHEAEGKYDGIILNAGAFTHYSYAIRDAIASISIPVVEVHISNIHAREPFRHQSVIAPVVAGQIVGFGLAGYRLAILALLEIKGRGDK
notes: as for B1
Take B7: in data set [8], the Km stood at 133.97 µM, the Vmax turned out to be 130 µM/min, the kcat came to 5.33 s⁻¹ and the kcat/Km is 40000 M⁻¹ s⁻¹.

B8: DHQase 3016 (Streptomyces acidiscabies) (protein)
chain: MPRTLANAPIMILNGPNLNLLGQRQPEIYGSDTLADVEALCVKAAATHGGTVDFRQSNHEGELVDWIHEARMDHCGIVINPGAYSHTSVAILDALNTCDGLPVIEVHISNIHKREAFRHHSYVSLRADGVIAGCGVQGYVFGVERVAALAGEGTARA
notes: as for B1
In the case of B8, in [9], the Km amounted to 141.53 µM, the Vmax was 745 µM/min, the kcat is 212 s⁻¹ and the kcat/Km came to 1.5e+06 M⁻¹ s⁻¹.

B9: DHQase 3012 (Arthrobacter crystallopoietes BAB-32) (protein)
chain: MGNMSEHSTGSSTRKLLVLNGPNLNLLGTREPQIYGSDTLEDAETLAARAAEAHGLAVECLQSNHEGVLIDAIHAARGTAAGIVINPGGYTHTSVALRDALSGVDLPVVEVHISNIHRREEFRHHSYISGIAVAVIAGAGISGYKFAVDLLASRL
notes: as for B1
Consider B9, for which, in data set [10], the Km worked out at 448.50 µM, the Vmax was found to be 4000 µM/min, the turnover number (kcat) came to 185 s⁻¹ and the kcat/Km amounted to 410000 M⁻¹ s⁻¹.

B10: DHQase 3037 (Paramagnetospirillum magneticum AMB-1) (protein)
chain: MLGTRQPELYGTETLADIEAACRTHADSLGLTVEFSQTNMEGELVTSIQKCRGRAVGIIINAGAYTHTSVAILDALLAAEVPAIEVHLSNIHQRDSFRHHSYVAKAAKGMICGLGSHGYILALDALARLIKGNAEA
notes: as for B1
Regarding B10, in data set [11], the Km worked out at 119.97 µM, the Vmax was 232 µM/min, the kcat was found to be 73.2 s⁻¹ and the kcat/Km came to 610000 M⁻¹ s⁻¹.

B11: DHQase 3007 (Gluconobacter oxydans 621H) (protein)
chain: MTAPKVLSRGQMKRPLITVLNGPNLNMLGLRQPGIYGHATLDDVEQVCIQAAERLDVAIDFRQTNGEGELVSWVQECRGRADGIVINPAAYGHTSIALLDALLAVELPVIEVHISNIHRREPFRHHTYVSQAAIGVICGLGVRGYAHALQAITDMIEDEG
notes: as for B1
B11: in [12], the Km was 777.75 µM, the Vmax came out at 146 µM/min, the turnover number (kcat) was found to be 77.1 s⁻¹ and the kcat/Km turned out to be 100000 M⁻¹ s⁻¹.

B12: DHQase 3010 (Psychromonas ingrahamii 37) (protein)
chain: MTQQIKLLVLNGPNLNLLGQREPEVYGSKTLDDIIKALTDEAALQNVALSHLQSNREYELIEKIHDAFEKIDFIIINPAAFTHTSVALRDALLGVNIPFIEVHLSNVHARESFRHHSYLSDIAQGVICGLGAKGYSFALQSAIGKLRNI
notes: as for B1
For the molecule B12, in [13], the Km stood at 202.55 µM, the maximal velocity (Vmax) was determined as 48 µM/min, the kcat came to 10.6 s⁻¹ and the kcat/Km is 50000 M⁻¹ s⁻¹.

B13: DHQase 3028 (Thermodesulfobium narugense DSM 14796) (protein)
chain: MKKILVINGPNLNMLGTREPNIYGSITLHGLEELILNFAKELEMKVDFFQSNHEGDIIDKIHRTFDAYDAFIINPGAFTHYSYAIRDAIASITIPVIEVHLSNVHAREEFRKSSVIAPVCLGQISGLGELSYIAAIVALDKYLQKLEKRA
notes: as for B1
Turning to B13, in data set [14], the Michaelis-Menten constant (Km) amounted to 180.72 µM, the Vmax was 69.6 µM/min, the kcat worked out at 6.88 s⁻¹ and the kcat/Km is 40000 M⁻¹ s⁻¹.

B14: DHQase 3024 (Halanaerobium hydrogeniformans) (protein)
chain: MQKVAVIHGPNLNMLGLREPEIYGKNNLEMVNKNLKRKAKELDFEIEIMQSNHEGEIVDYLHQNFEQLDGVIINPGGLTHTSVILRDALAAVRLPVIEVHISNIHKREEFRHKSLTAAVAVGQITGLGVKGYTLALEGLKSILGREKY
notes: as for B1
In the case of B14, in data set [15], the Km amounted to 526.07 µM, the maximum rate (Vmax) is 374 µM/min, the kcat was determined as 75.1 s⁻¹ and the catalytic efficiency (kcat/Km) worked out at 140000 M⁻¹ s⁻¹.
